Laboratory results as given in US20100311648A1 (AstraZeneca / MedImmune, published 2010).
Like-named read-outs stand apart in the source and are kept apart here. Positions of bridges follow the written chain, without caps; N, C: chain ends. Non-standard residues stand in square brackets, D forms with d. dPhe(2-CF3) = N[C@H](Cc1ccccc1C(F)(F)F)C(=O)O; dPhe(4-CN) = N#Cc1ccc(C[C@@H](N)C(=O)O)cc1; dPhe(3-Cl) = N[C@H](Cc1cccc(Cl)c1)C(=O)O; dPhe(2-Cl) = N[C@H](Cc1ccccc1Cl)C(=O)O; dPhe(2-Me) = Cc1ccccc1C[C@@H](N)C(=O)O; dPhe(4-F) = N[C@H](Cc1ccc(F)cc1)C(=O)O; dPhe(2-F) = N[C@H](Cc1ccccc1F)C(=O)O; Orn = NCCC[C@H](N)C(=O)O; Dab = NCC[C@H](N)C(=O)O

What was measured:
[1] = target: T1, human melanocortin-4 receptor (human, UniProt P32245 1-332); assay: cell-based or functional assay
T1 sequence (P32245 whole entry): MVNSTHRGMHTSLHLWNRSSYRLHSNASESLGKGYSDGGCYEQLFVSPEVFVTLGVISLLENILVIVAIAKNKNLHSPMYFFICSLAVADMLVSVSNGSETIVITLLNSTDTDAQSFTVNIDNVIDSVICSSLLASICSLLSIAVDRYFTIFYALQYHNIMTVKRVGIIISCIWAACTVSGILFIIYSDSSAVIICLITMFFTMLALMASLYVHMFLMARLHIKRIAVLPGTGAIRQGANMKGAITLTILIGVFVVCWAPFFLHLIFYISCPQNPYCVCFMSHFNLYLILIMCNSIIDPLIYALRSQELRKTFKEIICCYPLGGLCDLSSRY

[2] = target: T2, melanocortin-1 receptor (mouse (B-16 melanoma cells); in some …, UniProt Q01727 1-315); assay: [I125]-NDP-α-MSH competition, MC1-R membranes
T2 construct: whole, on cells; membrane homogenates; also called MC1-R; mouse B16 MC1-R
T2 sequence (Q01727 whole entry): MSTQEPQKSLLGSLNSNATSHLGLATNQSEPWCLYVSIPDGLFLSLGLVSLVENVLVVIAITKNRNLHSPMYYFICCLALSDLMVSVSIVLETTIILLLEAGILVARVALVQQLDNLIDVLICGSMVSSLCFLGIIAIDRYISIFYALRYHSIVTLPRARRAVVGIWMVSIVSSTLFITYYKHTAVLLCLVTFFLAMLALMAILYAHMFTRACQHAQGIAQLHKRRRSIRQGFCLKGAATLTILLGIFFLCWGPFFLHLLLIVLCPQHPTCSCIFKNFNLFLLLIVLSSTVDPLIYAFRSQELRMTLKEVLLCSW
Method: (§1) A competitive inhibition binding assay was performed for exemplified peptides according to the invention using membrane homogenates prepared from HEK-293 cells that express recombinant hMC4-R, hMC3-R, or hMC5-R, and from B-16 mouse melanoma cells (containing endogenous MC1-R). In some instances, HEK-293 cells that express recombinant hMC1-R were employed. Assays were performed in 96 well GF/B Millipore multiscreen filtration plates (MAFB NOB10) pre-coated with 0.5% bovine serum albumin (Fraction V). […] After incubation for 60 minutes at 37° C., the assay mixture was filtered and the membranes washed three times with ice-cold buffer. Filters were dried and counted in a gamma counter for bound radioactivity. […] Each assay was conducted in triplicate and the actual mean values are described, with results less than 0% reported as 0%. Ki values for test peptides of the present invention were determined using Graph-Pad Prism® curve-fitting software.

[3] = target: T1, human melanocortin-4 receptor; assay: [I125]-NDP-α-MSH competition, hMC4-R HEK-293 membranes
Method: as §1

[4] = target: T1, human melanocortin-4 receptor; assay: Ki of Table 1; receptor not given, taken as hMC4-R
[5] = target: T1, human melanocortin-4 receptor; assay: cell-based or functional assay; remark: listed apart in the source

| Binder | EC50, cAMP, 0.1 ng/mL Doxycycline [1] | EC50, cAMP, 10 ng/mL Doxycycline [1] | Ki [2] | Ki [3] | Intrinsic Activity, cAMP, 0.1 ng/mL Doxycycline [1] | Intrinsic Activity, cAMP, 10 ng/mL Doxycycline [1] | Ki [4] | EC50, cAMP, 0.1 ng/mL Doxycycline [5] |
| --- | --- | --- | --- | --- | --- | --- | --- | --- |
| Ac-REE[dPhe(4-CN)]RW[Orn]-NH2 (lactam 2-7; SMILES CC(=O)N[C@@H](CCCNC(=N)N)C(=O)N[C@H]1CCC(=O)NCCC[C@@H](C(N)=O)NC(=O)[C@H](Cc2c[nH]c3ccccc23)NC(=O)[C@H](CCCNC(=N)N)NC(=O)[C@@H](Cc2ccc(C#N)cc2)NC(=O)[C@H](CCC(=O)O)NC1=O) [Ac-Arg-cyclo(Glu-Glu-D-Phe(4-CN)-Arg-Trp-Orn)-NH2] | – | 9 nM | 10000 nM | 128 nM | 3% | 59% | – | – |
| Ac-REP[dPhe(4-CN)]RW[Orn]-NH2 (lactam 2-7; SMILES CC(=O)N[C@@H](CCCNC(=N)N)C(=O)N[C@H]1CCC(=O)NCCC[C@@H](C(N)=O)NC(=O)[C@H](Cc2c[nH]c3ccccc23)NC(=O)[C@H](CCCNC(=N)N)NC(=O)[C@@H](Cc2ccc(C#N)cc2)NC(=O)[C@@H]2CCCN2C1=O, also called No. 39) [Ac-Arg-cyclo(Glu-Pro-D-Phe(4-CN)-Arg-Trp-Orn)-NH2] | – | 1 nM | 1550 nM | 4 nM | 4% | 79% | – | – |
| Ac-RES[dPhe(4-CN)]RW[Orn]-NH2 (lactam 2-7; SMILES CC(=O)N[C@@H](CCCNC(=N)N)C(=O)N[C@H]1CCC(=O)NCCC[C@@H](C(N)=O)NC(=O)[C@H](Cc2c[nH]c3ccccc23)NC(=O)[C@H](CCCNC(=N)N)NC(=O)[C@@H](Cc2ccc(C#N)cc2)NC(=O)[C@H](CO)NC1=O, also called No. 45) [Ac-Arg-cyclo(Glu-Ser-D-Phe(4-CN)-Arg-Trp-Orn)-NH2] | – | 0.45 nM | 10000 nM | 10 nM | 12% | 87% | – | – |
| Ac-RET[dPhe(4-CN)]RW[Orn]-NH2 (lactam 2-7; SMILES CC(=O)N[C@@H](CCCNC(=N)N)C(=O)N[C@H]1CCC(=O)NCCC[C@@H](C(N)=O)NC(=O)[C@H](Cc2c[nH]c3ccccc23)NC(=O)[C@H](CCCNC(=N)N)NC(=O)[C@@H](Cc2ccc(C#N)cc2)NC(=O)[C@H]([C@@H](C)O)NC1=O, also called No. 44) [Ac-Arg-cyclo(Glu-Thr-D-Phe(4-CN)-Arg-Trp-Orn)-NH2] | 11 nM | 0.617 nM | 1620 nM | 18 nM | 22% | 99% | – | – |
| Ac-REP[dPhe(4-F)]RW[Orn]-OH (lactam 2-7; SMILES CC(=O)N[C@@H](CCCNC(=N)N)C(=O)N[C@H]1CCC(=O)NCCC[C@@H](C(=O)O)NC(=O)[C@H](Cc2c[nH]c3ccccc23)NC(=O)[C@H](CCCNC(=N)N)NC(=O)[C@@H](Cc2ccc(F)cc2)NC(=O)[C@@H]2CCCN2C1=O) [Ac-Arg-cyclo(Glu-Pro-D-Phe(4-F)-Arg-Trp-Orn)-OH] | 18 nM | 0.725 nM | 730 nM | 30 nM | 30% | 97% | – | – |
| Ac-REQ[dPhe(4-CN)]RW[Orn]-OH (lactam 2-7, also called No. 86) [Ac-Arg-cyclo(Glu-Gln-D-Phe(4-CN)-Arg-Trp-Orn)-OH] | 9 nM | 0.483 nM | 3970 nM | 40 nM | 36% | 96% | – | – |
| Ac-RE[Dab][dF]RW[Orn]-NH2 (lactam 2-7) [Ac-Arg-cyclo(Glu-Dab-D-Phe-Arg-Trp-Orn)-NH2] | – | – | – | – | – | – | 0.65 nM | 0.33 nM |
| XDQXRWK (N-terminal Ac; D-Arg 1; D-Phe(3-Cl) 4; lactam Asp 2-Lys 7; C-terminal NH2, also called No. 80) [Ac-D-Arg-cyclo(Asp-Gln-D-Phe(3-Cl)-Arg-Trp-Lys)-NH2] | 6 nM | 0.65 nM | 1750 nM | 7 nM | 13% | 86% | – | – |

Second part, the binder after the results:

| EC50, cAMP, 0.1 ng/mL Doxycycline [1] | EC50, cAMP, 10 ng/mL Doxycycline [1] | Ki [2] | Ki [3] | Intrinsic Activity, cAMP, 0.1 ng/mL Doxycycline [1] | Intrinsic Activity, cAMP, 10 ng/mL Doxycycline [1] | Ki [4] | EC50, cAMP, 0.1 ng/mL Doxycycline [5] | Binder |
| --- | --- | --- | --- | --- | --- | --- | --- | --- |
| 1 nM | 0.085 nM | 335 nM | 9 nM | – | – | – | – | Ac-R[Orn]N[dPhe(2-F)]RWE-NH2 (lactam 2-7, also called No. 71) [Ac-Arg-cyclo(Orn-Asn-D-Phe(2-F)-Arg-Trp-Glu)-NH2] |
| 1 nM | 0.14 nM | 130 nM | 5 nM | 38% | 99% | – | – | Ac-REP[dPhe(4-F)]RW[Orn]-NH2 (lactam 2-7; also: acetate salt, acetate salt form; also called Ex 67) [Ac-Arg-cyclo(Glu-Pro-D-Phe(4-F)-Arg-Trp-Orn)-NH2] |
| 1 nM | 0.085 nM | 43 nM | 5 nM | 58% | 93% | – | – | Ac-RES[dPhe(4-F)]RW[Orn]-NH2 (lactam 2-7; SMILES CC(=O)N[C@@H](CCCNC(=N)N)C(=O)N[C@H]1CCC(=O)NCCC[C@@H](C(N)=O)NC(=O)[C@H](Cc2c[nH]c3ccccc23)NC(=O)[C@H](CCCNC(=N)N)NC(=O)[C@@H](Cc2ccc(F)cc2)NC(=O)[C@H](CO)NC1=O, also called No. 65) [Ac-Arg-cyclo(Glu-Ser-D-Phe(4-F)-Arg-Trp-Orn)-NH2] |
| 5 nM | 0.265 nM | 95 nM | 6 nM | 32% | 88% | – | – | Ac-REP[dPhe(2-F)]RW[Orn]-NH2 (lactam 2-7; SMILES CC(=O)N[C@@H](CCCNC(=N)N)C(=O)N[C@H]1CCC(=O)NCCC[C@@H](C(N)=O)NC(=O)[C@H](Cc2c[nH]c3ccccc23)NC(=O)[C@H](CCCNC(=N)N)NC(=O)[C@@H](Cc2ccccc2F)NC(=O)[C@@H]2CCCN2C1=O, also called No. 66) [Ac-Arg-cyclo(Glu-Pro-D-Phe(2-F)-Arg-Trp-Orn)-NH2] |
| 7 nM | 0.313 nM | 300 nM | 8 nM | 33% | 98% | – | – | Ac-RES[dPhe(2-Cl)]RW[Orn]-NH2 (lactam 2-7; SMILES CC(=O)N[C@@H](CCCNC(=N)N)C(=O)N[C@H]1CCC(=O)NCCC[C@@H](C(N)=O)NC(=O)[C@H](Cc2c[nH]c3ccccc23)NC(=O)[C@H](CCCNC(=N)N)NC(=O)[C@@H](Cc2ccccc2Cl)NC(=O)[C@H](CO)NC1=O, also called No. 31) [Ac-Arg-cyclo(Glu-Ser-D-Phe(2-Cl)-Arg-Trp-Orn)-NH2] |
| 0.8 nM | 0.17 nM | 235 nM | 4 nM | 54% | 108% | – | – | Ac-R[Orn]Q[dPhe(2-CF3)]RWE-NH2 (lactam 2-7, also called No. 115) [Ac-Arg-cyclo(Orn-Gln-D-Phe(2-CF3)-Arg-Trp-Glu)-NH2] |
| 0.943 nM | 0.11 nM | 405 nM | 5 nM | 68% | 100% | – | – | Ac-R[Orn]N[dPhe(2-Me)]RWE-NH2 (lactam 2-7, also called No. 74) [Ac-Arg-cyclo(Orn-Asn-D-Phe(2-Me)-Arg-Trp-Glu)-NH2] |
| 1 nM | 0.185 nM | 93 nM | 8 nM | 73% | 117% | – | – | Ac-REQ[dPhe(2-CF3)]RW[Orn]-NH2 (lactam 2-7, also called No. 114) [Ac-Arg-cyclo(Glu-Gln-D-Phe(2-CF3)-Arg-Trp-Orn)-NH2] |
| 2 nM | 0.258 nM | 290 nM | 3 nM | 31% | 97% | – | – | Ac-REQ[dPhe(3-Cl)]RW[Orn]-NH2 (lactam 2-7, also called No. 38) [Ac-Arg-cyclo(Glu-Gln-D-Phe(3-Cl)-Arg-Trp-Orn)-NH2] |
| 4 nM | 0.2 nM | 395 nM | 10 nM | 48% | 85% | – | – | XDQXRWK (N-terminal Ac; D-Arg 1; D-Phe(2-Cl) 4; lactam Asp 2-Lys 7; C-terminal NH2, also called No. 79) [Ac-D-Arg-cyclo(Asp-Gln-D-Phe(2-Cl)-Arg-Trp-Lys)-NH2] |
